Earlier results in publication PMC7168109.

Target: T1, PTK7 (tyrosine protein kinase 7, CCK4) on CCRF-CEM or Jurkat cells (UniProt Q13308)
T1 sequence: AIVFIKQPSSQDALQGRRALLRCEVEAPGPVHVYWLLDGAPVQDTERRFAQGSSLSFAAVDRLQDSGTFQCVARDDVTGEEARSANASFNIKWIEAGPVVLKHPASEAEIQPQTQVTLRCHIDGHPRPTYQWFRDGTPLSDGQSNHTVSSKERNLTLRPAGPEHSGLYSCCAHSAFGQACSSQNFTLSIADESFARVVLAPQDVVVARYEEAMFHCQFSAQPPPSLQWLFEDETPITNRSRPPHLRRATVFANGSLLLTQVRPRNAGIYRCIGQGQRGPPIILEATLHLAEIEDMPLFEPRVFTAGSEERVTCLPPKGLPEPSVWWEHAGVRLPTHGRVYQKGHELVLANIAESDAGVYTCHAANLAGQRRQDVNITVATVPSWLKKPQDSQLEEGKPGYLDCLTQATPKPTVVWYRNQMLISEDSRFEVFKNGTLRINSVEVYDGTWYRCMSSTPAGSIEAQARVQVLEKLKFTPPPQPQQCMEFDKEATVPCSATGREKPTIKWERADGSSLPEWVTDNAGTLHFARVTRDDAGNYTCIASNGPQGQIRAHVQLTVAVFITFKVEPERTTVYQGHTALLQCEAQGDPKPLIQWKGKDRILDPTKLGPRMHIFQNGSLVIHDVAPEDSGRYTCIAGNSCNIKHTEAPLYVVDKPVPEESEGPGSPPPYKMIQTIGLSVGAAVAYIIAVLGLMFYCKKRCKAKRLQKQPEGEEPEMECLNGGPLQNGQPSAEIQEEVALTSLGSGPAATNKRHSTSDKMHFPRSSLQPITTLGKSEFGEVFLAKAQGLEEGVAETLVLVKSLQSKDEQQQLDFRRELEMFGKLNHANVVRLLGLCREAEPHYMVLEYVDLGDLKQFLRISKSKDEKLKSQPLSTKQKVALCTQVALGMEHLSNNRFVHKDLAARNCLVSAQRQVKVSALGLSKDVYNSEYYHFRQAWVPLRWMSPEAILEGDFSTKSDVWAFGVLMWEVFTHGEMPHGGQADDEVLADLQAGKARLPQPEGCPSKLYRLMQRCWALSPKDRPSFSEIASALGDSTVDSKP
Experiment: cited, method not stated
Conditions: Flow cytometry on whole cells: 200 nM aptamer, 4 °C, 30 min in the dark, cells washed with PBS before incubation, three washes after; binding buffer and pH not …

Sgc8 (as cited)
Kd: 800 pM
